Data reported in the supplement of paper PMC9112550, “Optimization of the antimicrobial peptide Bac7 by deep mutational scanning” (BMC Biology, 2022).

These sequences were tested on Escherichia coli TOP10 (assay: shrunken log2 fold change of peptide-encoding DNA abundance (4.5 h post-induction vs induction); higher = less antimicrobial activity (less host growth inhibition)). Settings: time post-induction: 4.5 h; library: site-saturation at positions 5, 18, 19, 20.
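Further: peptides expressed intracellularly from a pBAD plasmid library in pooled LB shake-flask culture, induced with 0.3% L-arabinose, DNA abundance read by NGS, three biological replicates, DESeq2 with apeglm shrinkage.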

Sequence	shrunken log2 fold change
RRIRWRPPRLPRPRPRPPDFPRP	-0.087
RRIRWRPPRLPRPRPRPPECPRP	-0.0729
RRIRWRPPRLPRPRPRPPESPRP	0.225
RRIRWRPPRLPRPRPRPPHGPRP	0.428
RRIRWRPPRLPRPRPRPPIGPRP	0.324
RRIRWRPPRLPRPRPRPPKSPRP	0.789
RRIRWRPPRLPRPRPRPPMNPRP	-0.0715
RRIRWRPPRLPRPRPRPPMQPRP	0.322
RRIRWRPPRLPRPRPRPPMYPRP	-0.216
RRIRWRPPRLPRPRPRPPNLPRP	-0.24
RRIRWRPPRLPRPRPRPPNTPRP	0.142
RRIRWRPPRLPRPRPRPPPYPRP	0.0878
RRIRWRPPRLPRPRPRPPREPRP	0.808
RRIRWRPPRLPRPRPRPPRGPRP	0.584
RRIRWRPPRLPRPRPRPPTHPRP	0.469
RRIRWRPPRLPRPRPRPPVKPRP	0.644
RRIRWRPPRLPRPRPRPPWHPRP	0.134
RRIRWRPPRLPRPRPRPPWSPRP	0.378
RRIRWRPPRLPRPRPRPPYEPRP	-0.103
RRIRWRPPRLPRPRPRPPYNPRP	-0.221
RRIRWRPPRLPRPRPRPQCAPRP	0.572
RRIRWRPPRLPRPRPRPQCEPRP	-0.0451
RRIRWRPPRLPRPRPRPQCGPRP	-0.0434
RRIRWRPPRLPRPRPRPQCMPRP	-0.157
RRIRWRPPRLPRPRPRPQDVPRP	-0.0384

Sequence	shrunken log2 fold change
RRIRWRPPRLPRPRPRPQFKPRP	-0.0678
RRIRWRPPRLPRPRPRPQFLPRP	-0.0223
RRIRWRPPRLPRPRPRPQGFPRP	-0.0818
RRIRWRPPRLPRPRPRPQIHPRP	-0.681
RRIRWRPPRLPRPRPRPQKFPRP	-0.0956
RRIRWRPPRLPRPRPRPQNKPRP	-0.536
RRIRWRPPRLPRPRPRPQPKPRP	0.294
RRIRWRPPRLPRPRPRPQPRPRP	0.462
RRIRWRPPRLPRPRPRPQQAPRP	-0.000157
RRIRWRPPRLPRPRPRPQQFPRP	-0.262
RRIRWRPPRLPRPRPRPQQMPRP	-0.128
RRIRWRPPRLPRPRPRPQQYPRP	-0.284
RRIRWRPPRLPRPRPRPQSLPRP	0.00606
RRIRWRPPRLPRPRPRPQTNPRP	0.14
RRIRWRPPRLPRPRPRPQVHPRP	0.0992
RRIRWRPPRLPRPRPRPQVNPRP	0.141
RRIRWRPPRLPRPRPRPQYIPRP	-0.944
RRIRWRPPRLPRPRPRPRCAPRP	0.586
RRIRWRPPRLPRPRPRPRCEPRP	0.545
RRIRWRPPRLPRPRPRPRDLPRP	0.276
RRIRWRPPRLPRPRPRPREHPRP	0.822
RRIRWRPPRLPRPRPRPREMPRP	0.262
RRIRWRPPRLPRPRPRPRFPPRP	0.304
RRIRWRPPRLPRPRPRPRFVPRP	0.139
RRIRWRPPRLPRPRPRPRFWPRP	0.455

Sequence	shrunken log2 fold change
RRIRWRPPRLPRPRPRPRHQPRP	-0.0137
RRIRWRPPRLPRPRPRPRIAPRP	0.133
RRIRWRPPRLPRPRPRPRIHPRP	0.178
RRIRWRPPRLPRPRPRPRILPRP	0.188
RRIRWRPPRLPRPRPRPRIPPRP	0.0219
RRIRWRPPRLPRPRPRPRLCPRP	0.512
RRIRWRPPRLPRPRPRPRLEPRP	0.778
RRIRWRPPRLPRPRPRPRLPPRP	0.471
RRIRWRPPRLPRPRPRPRMIPRP	0.693
RRIRWRPPRLPRPRPRPRNWPRP	0.172
RRIRWRPPRLPRPRPRPRPTPRP	0.547
RRIRWRPPRLPRPRPRPRQYPRP	-0.534
RRIRWRPPRLPRPRPRPRRDPRP	0.243
RRIRWRPPRLPRPRPRPRSIPRP	-0.006
RRIRWRPPRLPRPRPRPRTKPRP	1.88
RRIRWRPPRLPRPRPRPRWFPRP	0.999
RRIRWRPPRLPRPRPRPRWGPRP	0.534
RRIRWRPPRLPRPRPRPRWQPRP	-0.0189
RRIRWRPPRLPRPRPRPRWRPRP	0.552
RRIRWRPPRLPRPRPRPRYIPRP	-0.665
RRIRWRPPRLPRPRPRPRYTPRP	-0.25
RRIRWRPPRLPRPRPRPSAYPRP	-0.549
RRIRWRPPRLPRPRPRPSCNPRP	-0.0978
RRIRWRPPRLPRPRPRPSDVPRP	-0.545
RRIRWRPPRLPRPRPRPSEEPRP	0.129

Sequence	shrunken log2 fold change
RRIRWRPPRLPRPRPRPSHIPRP	-0.241
RRIRWRPPRLPRPRPRPSIEPRP	0.0114
RRIRWRPPRLPRPRPRPSIQPRP	-0.0487
RRIRWRPPRLPRPRPRPSITPRP	-0.0237
RRIRWRPPRLPRPRPRPSKGPRP	0.0944
RRIRWRPPRLPRPRPRPSLVPRP	-0.0104
RRIRWRPPRLPRPRPRPSMMPRP	0.157
RRIRWRPPRLPRPRPRPSMNPRP	0.0339
RRIRWRPPRLPRPRPRPSNNPRP	-0.446
RRIRWRPPRLPRPRPRPSNSPRP	-0.498
RRIRWRPPRLPRPRPRPSPPPRP	0.423
RRIRWRPPRLPRPRPRPSQAPRP	-0.126
RRIRWRPPRLPRPRPRPSQPPRP	-0.0613
RRIRWRPPRLPRPRPRPSQTPRP	0.657
RRIRWRPPRLPRPRPRPSRMPRP	0.0635
RRIRWRPPRLPRPRPRPSSDPRP	-0.0856
RRIRWRPPRLPRPRPRPSSRPRP	0.188
RRIRWRPPRLPRPRPRPSVEPRP	0.172
RRIRWRPPRLPRPRPRPSWEPRP	-0.0924
RRIRWRPPRLPRPRPRPSYHPRP	-0.568
RRIRWRPPRLPRPRPRPSYIPRP	-0.715
RRIRWRPPRLPRPRPRPSYKPRP	-0.479
RRIRWRPPRLPRPRPRPSYMPRP	-0.502
RRIRWRPPRLPRPRPRPSYTPRP	-0.656
RRIRWRPPRLPRPRPRPTACPRP	0.317

Sequence	shrunken log2 fold change
RRIRWRPPRLPRPRPRPTAMPRP	0.814
RRIRWRPPRLPRPRPRPTAYPRP	0.0204
RRIRWRPPRLPRPRPRPTCEPRP	0.752
RRIRWRPPRLPRPRPRPTDDPRP	-0.0402
RRIRWRPPRLPRPRPRPTECPRP	0.0746
RRIRWRPPRLPRPRPRPTFIPRP	-0.417
RRIRWRPPRLPRPRPRPTGHPRP	0.317
RRIRWRPPRLPRPRPRPTHEPRP	0.219
RRIRWRPPRLPRPRPRPTHIPRP	-0.067
RRIRWRPPRLPRPRPRPTIHPRP	0.13
RRIRWRPPRLPRPRPRPTKDPRP	0.214
RRIRWRPPRLPRPRPRPTKEPRP	0.177
RRIRWRPPRLPRPRPRPTKFPRP	0.142
RRIRWRPPRLPRPRPRPTLCPRP	0.127
RRIRWRPPRLPRPRPRPTLDPRP	0.745
RRIRWRPPRLPRPRPRPTLPPRP	0.128
RRIRWRPPRLPRPRPRPTMGPRP	0.272
RRIRWRPPRLPRPRPRPTPQPRP	1.63
RRIRWRPPRLPRPRPRPTQEPRP	0.0333
RRIRWRPPRLPRPRPRPTQSPRP	0.472
RRIRWRPPRLPRPRPRPTRHPRP	0.37
RRIRWRPPRLPRPRPRPTRRPRP	0.377
RRIRWRPPRLPRPRPRPTSLPRP	0.0239
RRIRWRPPRLPRPRPRPTTLPRP	-0.0826
RRIRWRPPRLPRPRPRPTWGPRP	0.356

Sequence	shrunken log2 fold change
RRIRWRPPRLPRPRPRPTWNPRP	0.306
RRIRWRPPRLPRPRPRPTWQPRP	0.125
RRIRWRPPRLPRPRPRPTYSPRP	-0.163
RRIRWRPPRLPRPRPRPVAIPRP	-0.0829
RRIRWRPPRLPRPRPRPVCKPRP	0.643
RRIRWRPPRLPRPRPRPVCQPRP	-0.0154
RRIRWRPPRLPRPRPRPVCRPRP	0.353
RRIRWRPPRLPRPRPRPVEIPRP	-0.206
RRIRWRPPRLPRPRPRPVEKPRP	0.234
RRIRWRPPRLPRPRPRPVERPRP	0.398
RRIRWRPPRLPRPRPRPVETPRP	-0.0256
RRIRWRPPRLPRPRPRPVFMPRP	-0.0684
RRIRWRPPRLPRPRPRPVFQPRP	0.183
RRIRWRPPRLPRPRPRPVILPRP	-0.208
RRIRWRPPRLPRPRPRPVIWPRP	0.147
RRIRWRPPRLPRPRPRPVKLPRP	-0.0719
RRIRWRPPRLPRPRPRPVLPPRP	-0.0604
RRIRWRPPRLPRPRPRPVMGPRP	0.37
RRIRWRPPRLPRPRPRPVMNPRP	-0.133
RRIRWRPPRLPRPRPRPVNAPRP	0.0945
RRIRWRPPRLPRPRPRPVPEPRP	0.634
RRIRWRPPRLPRPRPRPVQDPRP	-0.103
RRIRWRPPRLPRPRPRPVRWPRP	0.874
RRIRWRPPRLPRPRPRPVRYPRP	0.00421
RRIRWRPPRLPRPRPRPVSHPRP	-0.0115
